Test results: PMC2919377, “A Nuclear Family A DNA Polymerase from Entamoeba histolytica Bypasses Thymine Glycol” (PLoS Neglected Tropical Diseases, 2010)

What was measured:
Experiment in all cases: purified protein
Type in all cases: biochemical, Entamoeba histolytica
Conditions in all cases: opposite cognate template base, primer-template DNA, optimised buffer (Mg2+ optimum 2.5 mM, pH optimum 7.5), 37 °C
purified protein [1] = substrate: Cc1cn([C@H]2C[C@H](O)[C@@H](COP(=O)(O)OP(=O)(O)OP(=O)(O)O)O2)c(=O)[nH]c1=O
purified protein [2] = substrate: Nc1ncnc2c1ncn2[C@H]1C[C@H](O)[C@@H](COP(=O)(O)OP(=O)(O)OP(=O)(O)O)O1
purified protein [3] = substrate: Nc1ccn([C@H]2C[C@H](O)[C@@H](COP(=O)(O)OP(=O)(O)OP(=O)(O)O)O2)c(=O)n1
purified protein [4] = substrate: Nc1nc2c(ncn2[C@H]2C[C@H](O)[C@@H](COP(=O)(O)OP(=O)(O)OP(=O)(O)O)O2)c(=O)[nH]1

B1: EhDNApolA (Entamoeba histolytica HM-1:IMSS) (protein)
chain: MEKTPRNSVDDLLMLFEDVKDNNKPVDYTKLESEETKKTENKERRKSLSINVNDEIPEKRKRKSIKQEGTPQPKVGAVFEIQYQHLPNKIDISELKELLEKIPKMEGKIMFNEKNLEQSIVINCTNNGIHALIGNSYVVLKKELLPEIINSRRLIIVYNLMEEIKNYRNNIKCILENFNTNNTIFDTYIGASTIDPGSVDGKTFSQICLVYEVIINKSTIEERLKQTRRLAVKEVEVMNNDNMIKVFQEQEMIIDGVLIEMNYCNEFKIDNKLLNEQRKKLIEEQHKIEMETKKIIGRTINLSSPEQVKKELIRFNIGIDGIKKKATTDKKILSQSDHPFAKLVLEYRKISKLLSGVIEQIRKCCIKSGDEYFIRTTWSQTAIVTGRIQSKSPNLQQIPKQSFSLPQCLIIPRDLFITHNNNTFVAIDYNQIELRILADFTKDHHLIEFFKSNTDVHRLIAAHWLKKNVNDITDDERRKAKTIVYGCIYGIGPFSLADQLHVSLDESKAFLESFLDQFPAFKKWKEETITNASTTGFVHTINNRRRRINNLTDCNDKKTVAESKRIAVNSPIQGTAADIIKMCMIEIFKKLHSSWVGVQLLLNIHDEIVLEVPDHLLDEVCVTLKHLMEHIVKLEVPLVVTVETGKKWGSLHPYNLN
notes: full-length ORF, 657 aa, about 75 kDa, N-terminal 6-His tag (pCOLD I), expressed in E. coli BL21 DE3-Rosetta II; Ni-NTA and phosphocellulose
Km (purified protein [1]): 1.49 ± 0.3 µM
Vmax (purified protein [1]): 0.0029 µmol/min
Km (purified protein [2]): 2.3 ± 0.2 µM
Vmax (purified protein [2]): 0.0033 µmol/min
Km (purified protein [3]): 2.1 ± 0.3 µM
Vmax (purified protein [3]): 0.0032 µmol/min
Km (purified protein [4]): 1.56 ± 0.2 µM
Vmax (purified protein [4]): 0.0035 µmol/min
